Results: publication PMC9187738

Assays:
hamster JUNO (hamster) [1] = experiment: live imaging-based adhesion molecule (LIAM) assay; BHK cells, non-inducible expression (cytomegalovirus promoter); separately transfected cells mixed in equal amounts 4 h after transfection, incubated 20 h, imaged every 6 min for 12 h at 40x, 37 °C, 5% CO2; read-outs: accumulation at the cell interface and translocation to the opposite cell, % of contacting cell pairs
[2] = molecular target: mouse mCherry-JUNO (mouse) (UniProt Q9EQF4); experiment: as above
hamster JUNO (hamster) [3] = experiment: live imaging-based adhesion molecule (LIAM) assay; HEK293T cells expressing IZUMO1 mixed with HEK293T cells expressing JUNO; read-out: accumulation at the interface of the cells, % of contacting cell pairs
human JUNO (human) = human JUNO (human) (UniProt A6ND01); experiment: live imaging-based adhesion molecule (LIAM) assay; BHK cells, non-inducible expression (cytomegalovirus promoter); separately transfected cells mixed in equal amounts 4 h after transfection, incubated 20 h, imaged every 6 min for 12 h at 40x, 37 °C, 5% CO2; read-outs: accumulation at the cell interface and translocation to the opposite cell, % of contacting cell pairs
pig JUNO (pig) = experiment: as above

Chain of human JUNO (human) (A6ND01 20-228): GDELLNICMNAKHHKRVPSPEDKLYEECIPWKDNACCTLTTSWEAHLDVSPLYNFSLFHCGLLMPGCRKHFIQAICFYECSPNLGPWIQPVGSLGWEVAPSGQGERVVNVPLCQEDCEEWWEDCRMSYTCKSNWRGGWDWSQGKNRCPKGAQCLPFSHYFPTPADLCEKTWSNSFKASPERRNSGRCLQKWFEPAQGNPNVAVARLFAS
Chain of mouse mCherry-JUNO (mouse) (Q9EQF4 20-222): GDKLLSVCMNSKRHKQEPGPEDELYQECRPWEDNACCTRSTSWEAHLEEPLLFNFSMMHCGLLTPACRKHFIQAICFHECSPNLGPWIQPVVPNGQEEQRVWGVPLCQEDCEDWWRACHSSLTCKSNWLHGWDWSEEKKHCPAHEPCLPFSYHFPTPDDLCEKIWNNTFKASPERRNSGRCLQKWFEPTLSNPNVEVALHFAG
Chain of human IZUMO1 (Q8IYV9 22-350): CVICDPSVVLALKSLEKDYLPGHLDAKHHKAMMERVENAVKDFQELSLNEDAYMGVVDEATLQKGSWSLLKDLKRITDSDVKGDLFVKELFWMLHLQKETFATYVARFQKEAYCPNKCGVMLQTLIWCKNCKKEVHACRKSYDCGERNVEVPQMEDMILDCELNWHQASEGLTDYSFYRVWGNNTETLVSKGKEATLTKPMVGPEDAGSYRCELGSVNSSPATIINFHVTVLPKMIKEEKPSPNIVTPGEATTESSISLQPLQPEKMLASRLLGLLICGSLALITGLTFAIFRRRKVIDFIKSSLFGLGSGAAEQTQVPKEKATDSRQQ

## hamster IZUMO1 (natural protein)
Hamster JUNO (hamster) [1]
  IZUMO1 accumulation (% of contacting cell pairs): 77%
  IZUMO1 translocation (% of contacting cell pairs): 44%
  JUNO accumulation (% of contacting cell pairs): 16%
  JUNO translocation (% of contacting cell pairs): 28%
[2]
  IZUMO1 accumulation (% of contacting cell pairs): 33%
  JUNO accumulation (% of contacting cell pairs): 25%

## human IZUMO1 (from UniProt Q8IYV9 22-350) (natural protein)
Hamster JUNO (hamster) [3]
  IZUMO1 accumulation (% of contacting cell pairs): 9.3%
  JUNO accumulation (% of contacting cell pairs): 2.8%

## pig IZUMO1 (natural protein)
Hamster JUNO (hamster) [1]
  IZUMO1 accumulation (% of contacting cell pairs): 13%
  JUNO accumulation (% of contacting cell pairs): 7.1%
Human JUNO (human)
  IZUMO1 accumulation (% of contacting cell pairs): 48%
  IZUMO1 translocation (% of contacting cell pairs): 3.2%
  JUNO accumulation (% of contacting cell pairs): 49%
  JUNO translocation (% of contacting cell pairs): 32%
Pig JUNO (pig)
  IZUMO1 accumulation (% of contacting cell pairs): 24%
